Measured values reported in the supplement of paper PMC9112550, “Optimization of the antimicrobial peptide Bac7 by deep mutational scanning” (BMC Biology, 2022).

System: Escherichia coli TOP10
Test: shrunken log2 fold change of peptide-encoding DNA abundance (4.5 h post-induction vs induction); higher = less antimicrobial activity (less host growth inhibition)
Conditions: time post-induction: 4.5 h; library: site-saturation at positions 5, 18, 19, 20
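Also: peptides expressed intracellularly from a pBAD plasmid library in pooled LB shake-flask culture, induced with 0.3% L-arabinose, DNA abundance read by NGS, three biological replicates, DESeq2 with apeglm shrinkage.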

Sequence	shrunken log2 fold change
RRIRNRPPRLPRPRPRPRPFPRP	0.472
RRIRPRPPRLPRPRPRPFCSPRP	-0.186
RRIRFRPPRLPRPRPRPHNPPRP	-0.288
RRIRIRPPRLPRPRPRPQSFPRP	0.0784
RRIRKRPPRLPRPRPRPVTGPRP	-0.0771
RRIRKRPPRLPRPRPRPRQRPRP	1.57
RRIRLRPPRLPRPRPRPHAWPRP	0.62
RRIRCRPPRLPRPRPRPDKIPRP	-0.24
RRIRMRPPRLPRPRPRPWFCPRP	-1.02
RRIRPRPPRLPRPRPRPEDVPRP	-0.0168
RRIRQRPPRLPRPRPRPIWVPRP	-0.344
RRIRIRPPRLPRPRPRPAEQPRP	-0.0532
RRIRHRPPRLPRPRPRPCRMPRP	0.0591
RRIRLRPPRLPRPRPRPISSPRP	0.106
RRIRTRPPRLPRPRPRPEILPRP	0.0249
RRIRRRPPRLPRPRPRPPEFPRP	0.614
RRIRSRPPRLPRPRPRPEICPRP	0.0531
RRIRHRPPRLPRPRPRPSGVPRP	-0.115
RRIRCRPPRLPRPRPRPFHPPRP	-0.075
RRIRARPPRLPRPRPRPGKVPRP	0.0119
RRIRNRPPRLPRPRPRPKAKPRP	0.146
RRIRERPPRLPRPRPRPWHAPRP	0.421
RRIRSRPPRLPRPRPRPKIIPRP	-0.0525
RRIRDRPPRLPRPRPRPLFAPRP	0.65
RRIRWRPPRLPRPRPRPEEFPRP	0.023

Sequence	shrunken log2 fold change
RRIRIRPPRLPRPRPRPYSIPRP	-0.129
RRIRFRPPRLPRPRPRPSMDPRP	-0.819
RRIRTRPPRLPRPRPRPIWHPRP	0.12
RRIRGRPPRLPRPRPRPLMDPRP	1.04
RRIRTRPPRLPRPRPRPEGHPRP	0.0274
RRIRDRPPRLPRPRPRPQRSPRP	0.0502
RRIRMRPPRLPRPRPRPNQRPRP	0.332
RRIRDRPPRLPRPRPRPRRWPRP	0.453
RRIRFRPPRLPRPRPRPYYDPRP	-0.072
RRIRIRPPRLPRPRPRPDGLPRP	0.0731
RRIRKRPPRLPRPRPRPVDNPRP	-0.0705
RRIRQRPPRLPRPRPRPIYNPRP	-0.478
RRIRFRPPRLPRPRPRPIEIPRP	-0.143
RRIRKRPPRLPRPRPRPTPEPRP	0.611
RRIRERPPRLPRPRPRPGAVPRP	1.45
RRIRIRPPRLPRPRPRPIFIPRP	-0.317
RRIRVRPPRLPRPRPRPSPAPRP	0.34
RRIRTRPPRLPRPRPRPYQLPRP	-0.5
RRIRGRPPRLPRPRPRPYAYPRP	-0.0803
RRIRTRPPRLPRPRPRPMKTPRP	0.0208
RRIRMRPPRLPRPRPRPPNLPRP	0.0707
RRIRSRPPRLPRPRPRPKEPPRP	-0.0411
RRIRNRPPRLPRPRPRPANIPRP	-0.0793
RRIRPRPPRLPRPRPRPPLVPRP	0.389
RRIRHRPPRLPRPRPRPIPWPRP	0.0217

Sequence	shrunken log2 fold change
RRIRCRPPRLPRPRPRPFEAPRP	0.102
RRIRTRPPRLPRPRPRPSWQPRP	-0.073
RRIRPRPPRLPRPRPRPNFIPRP	-0.215
RRIRERPPRLPRPRPRPISCPRP	-0.705
RRIRRRPPRLPRPRPRPTEGPRP	0.18
RRIRDRPPRLPRPRPRPKGKPRP	0.142
RRIRWRPPRLPRPRPRPIYDPRP	-0.227
RRIRKRPPRLPRPRPRPFQIPRP	0.0332
RRIRNRPPRLPRPRPRPLKNPRP	-0.234
RRIRHRPPRLPRPRPRPGWNPRP	0.0316
RRIRYRPPRLPRPRPRPLVWPRP	0.00227
RRIRCRPPRLPRPRPRPMFQPRP	-0.151
RRIRARPPRLPRPRPRPSEHPRP	-0.301
RRIRPRPPRLPRPRPRPMRQPRP	0.398
RRIRIRPPRLPRPRPRPAFNPRP	-0.0935
RRIRHRPPRLPRPRPRPHIPPRP	-0.514
RRIRIRPPRLPRPRPRPTFIPRP	-0.677
RRIRKRPPRLPRPRPRPECTPRP	3.42
RRIRVRPPRLPRPRPRPQKGPRP	-0.036
RRIRDRPPRLPRPRPRPKATPRP	0.00253
RRIRFRPPRLPRPRPRPNNVPRP	-0.179
RRIRERPPRLPRPRPRPLNKPRP	-0.47
RRIRSRPPRLPRPRPRPPKPPRP	0.149
RRIRHRPPRLPRPRPRPKEHPRP	0.0812
RRIRARPPRLPRPRPRPDAYPRP	0.522

Sequence	shrunken log2 fold change
RRIRRRPPRLPRPRPRPVQSPRP	0.0557
RRIRYRPPRLPRPRPRPLGEPRP	-0.172
RRIRKRPPRLPRPRPRPDGHPRP	-0.0242
RRIRLRPPRLPRPRPRPITCPRP	-0.513
RRIRCRPPRLPRPRPRPWMKPRP	-0.0192
RRIRCRPPRLPRPRPRPYIYPRP	-0.945
RRIRARPPRLPRPRPRPPSLPRP	0.513
RRIRERPPRLPRPRPRPDNRPRP	-0.0217
RRIRARPPRLPRPRPRPRISPRP	0.0223
RRIRSRPPRLPRPRPRPNRWPRP	-0.0554
RRIRCRPPRLPRPRPRPSNSPRP	-0.644
RRIRARPPRLPRPRPRPEHYPRP	0.068
RRIRNRPPRLPRPRPRPAVNPRP	-0.169
RRIRDRPPRLPRPRPRPDRLPRP	0.0401
RRIRMRPPRLPRPRPRPNSHPRP	-0.451
RRIRCRPPRLPRPRPRPHSNPRP	-0.625
RRIRKRPPRLPRPRPRPTHMPRP	0.37
RRIRSRPPRLPRPRPRPMKGPRP	-0.311
RRIRGRPPRLPRPRPRPERYPRP	-0.107
RRIRYRPPRLPRPRPRPGHFPRP	-0.0316
RRIRYRPPRLPRPRPRPTNRPRP	-0.363
RRIRERPPRLPRPRPRPRLCPRP	-0.426
RRIRTRPPRLPRPRPRPWIIPRP	-0.228
RRIRGRPPRLPRPRPRPMWPPRP	1.07
RRIRKRPPRLPRPRPRPDLQPRP	0.0789

Sequence	shrunken log2 fold change
RRIRPRPPRLPRPRPRPMNQPRP	0.00354
RRIRHRPPRLPRPRPRPSNIPRP	-0.332
RRIRRRPPRLPRPRPRPSLMPRP	-0.0626
RRIRVRPPRLPRPRPRPGHEPRP	-0.0501
RRIRDRPPRLPRPRPRPVNYPRP	-0.116
RRIRERPPRLPRPRPRPSHNPRP	-0.903
RRIRARPPRLPRPRPRPCHLPRP	-0.171
RRIRERPPRLPRPRPRPSLYPRP	-0.558
RRIRDRPPRLPRPRPRPMCKPRP	0.108
RRIRIRPPRLPRPRPRPFFQPRP	-0.412
RRIRHRPPRLPRPRPRPHDFPRP	-0.0633
RRIRRRPPRLPRPRPRPCSFPRP	-0.0171
RRIRSRPPRLPRPRPRPFHWPRP	-0.108
RRIRKRPPRLPRPRPRPCMNPRP	-0.279
RRIRTRPPRLPRPRPRPTFYPRP	-0.0485
RRIRWRPPRLPRPRPRPLASPRP	0.26
RRIRTRPPRLPRPRPRPKQGPRP	0.0588
RRIRFRPPRLPRPRPRPDLSPRP	-0.0807
RRIRGRPPRLPRPRPRPTFCPRP	0.46
RRIRWRPPRLPRPRPRPGQDPRP	0.334
RRIRPRPPRLPRPRPRPWDYPRP	-0.19
RRIRARPPRLPRPRPRPCGLPRP	-0.0341
RRIRARPPRLPRPRPRPAHYPRP	0.095
RRIRIRPPRLPRPRPRPATPPRP	0.0979
RRIRFRPPRLPRPRPRPEGSPRP	-0.134

Sequence	shrunken log2 fold change
RRIRARPPRLPRPRPRPFEKPRP	-0.122
RRIRTRPPRLPRPRPRPTNHPRP	-0.622
RRIRTRPPRLPRPRPRPNLCPRP	0.108
RRIRHRPPRLPRPRPRPAAMPRP	0.191
RRIRDRPPRLPRPRPRPIKDPRP	-4
RRIRSRPPRLPRPRPRPGVHPRP	-0.035
RRIRNRPPRLPRPRPRPHAQPRP	-0.835
RRIRIRPPRLPRPRPRPTDIPRP	-0.359
RRIRSRPPRLPRPRPRPAAIPRP	2.36
RRIRSRPPRLPRPRPRPTYFPRP	-0.563
RRIRCRPPRLPRPRPRPDPHPRP	-0.015
RRIRDRPPRLPRPRPRPKPRPRP	0.711
RRIRKRPPRLPRPRPRPIYKPRP	-0.0701
RRIRTRPPRLPRPRPRPWSLPRP	-0.673
RRIRMRPPRLPRPRPRPVPWPRP	0.581
RRIRTRPPRLPRPRPRPTLKPRP	0.00476
RRIRERPPRLPRPRPRPHFSPRP	0.061
RRIRDRPPRLPRPRPRPWNFPRP	0.0173
RRIRTRPPRLPRPRPRPHDRPRP	-0.00195
RRIRTRPPRLPRPRPRPVHKPRP	-0.285
RRIRFRPPRLPRPRPRPQLKPRP	-0.0312
RRIRARPPRLPRPRPRPVLHPRP	0.288
RRIRTRPPRLPRPRPRPGMEPRP	0.013
RRIRARPPRLPRPRPRPGHQPRP	0.304
RRIRERPPRLPRPRPRPIAYPRP	-0.0148
